In paper PMC13376213, “Systematic discovery of motif-based interactions of the auxiliary domains of USP family deubiquitinases” (Nature Communications, 2026):

B1: SNAP23 (protein, UniProt O00161 1-211, looked up)
Synaptosomal-associated …: MDNLSSEEIQQRAHQITDESLESTRRILGLAIESQDAGIKTITMLDEQKEQLNRIEEGLDQINKDMRETEKTLTELNKCCGLCVCPCNRTKNFESGKAYKTTWGDGGENSPCNVVSKQPGPVTNGQLQQPTTGAASGGYIKRITNDAREDEMEENLTQVGSILGNLKDMALNIGNEIDAQNPQIKRITDKADTNRDRIDIANARAKKLIDS
B2: RTL8C (protein, UniProt O15255 1-206, looked up)
CAAX box protein 1: MGGGRGLLGRETLGPGGGCSGEGPLCYWPPPGSPPAPSLRASLPLEPPRCPLRSCSLPRSACLCSRNSAPGSCCRPWASLWSEPPPSPSSQPAPPMYIWTLSCAPAASWAPVTHWTDHPLPPLPSPLLPTRLPDDYIILPTDLRCHSHRHPSHPTDRLLLLVIWTHLGGIWAGHSPWTVIQTAGRPPRDLSPSARPISSPPPETSC
B3: ILVBL (protein, UniProt A1L0T0 1-632, looked up)
2-hydroxyacyl-CoA lyase 2: METPAAAAPAGSLFPSFLLLACGTLVAALLGAAHRLGLFYQLLHKVDKASVRHGGENVAAVLRAHGVRFIFTLVGGHISPLLVACEKLGIRVVDTRHEVTAVFAADAMARLSGTVGVAAVTAGPGLTNTVTAVKNAQMAQSPILLLGGAASTLLQNRGALQAVDQLSLFRPLCKFCVSVRRVRDIVPTLRAAMAAAQSGTPGPVFVELPVDVLYPYFMVQKEMVPAKPPKGLVGRVVSWYLENYLANLFAGAWEPQPEGPLPLDIPQASPQQVQRCVEILSRAKRPLMVLGSQALLTPTSADKLRAAVETLGVPCFLGGMARGLLGRNHPLHIRENRSAALKKADVIVLAGTVCDFRLSYGRVLSHSSKIIIVNRNREEMLLNSDIFWKPQEAVQGDVGSFVLKLVEGLQGQTWAPDWVEELREADRQKEQTFREKAAMPVAQHLNPVQVLQLVEETLPDNSILVVDGGDFVGTAAHLVQPRGPLRWLDPGAFGTLGVGAGFALGAKLCRPDAEVWCLFGDGAFGYSLIEFDTFVRHKIPVMALVGNDAGWTQISREQVPSLGSNVACGLAYTDYHKAAMGLGARGLLLSRENEDQVVKVLHDAQQQCRDGHPVVVNILIGRTDFRDGSIAV
B4: RCCD1 (protein, UniProt A6NED2 1-376, looked up)
RCC1 domain-containing …: MAEERPGAWFGFGFCGFGQELGSGRGRQVHSPSPLRAGVDICRVSASWSYTAFVTRGGRLELSGSASGAAGRCKDAWASEGLLAVLRAGPGPEALLQVWAAESALRGEPLWAQNVVPEAEGEDDPAGEAQAGRLPLLPCARAYVSPRAPFYRPLAPELRARQLELGAEHALLLDAAGQVFSWGGGRHGQLGHGTLEAELEPRLLEALQGLVMAEVAAGGWHSVCVSETGDIYIWGWNESGQLALPTRNLAEDGETVAREATELNEDGSQVKRTGGAEDGAPAPFIAVQPFPALLDLPMGSDAVKASCGSRHTAVVTRTGELYTWGWGKYGQLGHEDTTSLDRPRRVEYFVDKQLQVKAVTCGPWNTYVYAVEKGKS
B5: MEIOC (protein, UniProt A2RUB1 1-952, looked up)
Meiosis-specific coiled-coil …: MEVRRGDTCPRPHPSGLREEGLEPKVAFPGGANRCWNLGADAGSRLTDVFGSVMLTGSASFYDCYTSQSEDNVDLRQTYTPFSSTEYSSSVDSSLFCAPWSTYGDDIKQPSNSQISIKNRIQTERNDYGSETDLYGLVSNILEEQDKSQPYFAEGTCSSNLKSVWPMNTSRFADHHDLLTETKRPIDTVISQQAFYSDESVSAMEKQYLRNSNLTPQQKIDELHHGFTGLDLEEQWMYPSRSDHSNCHNIQTNDTAKTTFQEYPLIKNCFTPQTGLSDIMKESGVDIYHYGRDRICTKGLEAPLQQKRAEMFLSQFNRYNENVDYCRYPEYVHPNKAKLNKCSNFSVQDSKKLANGTPETPTVEADTYTKLFQVKPANQKKMEETIPDQQNFTFPKTTPHLTEKQFAKEAVFTADFGLTSEYGLKPHTACPANDFANVTEKQQFAKPDPPHSEYFKSVNLLSNSATSSGGINLNRPTWMNVQTKNNTPIPYRNQGNLMKLNSHLSAASKGSNHSSDFPQLSSTNLTPNSNLFQKYCQENPSAFSSFDFSYSGAERIQSVNHIEGLTKPGEENLFKLVTDKKIKQPNGFCDNYSAQKYGIIENVNKHNFQAKPQSGHYDPEEGPKHLDGLSQNTYQDLLESQGHSNSHRTRGGDNSRVNRTQVSCFSNNYMMGDLRHNQCFQQLGSNGFPLRSTHPFGHSVVPLLDSYDLLSYDDLSHLYPYFNMMYGDNSFSGLMPTFGFQRPIKTRSGPASELHIRLEECCEQWRALEKERKKTELALAKNYPGKKVSSTNNTPVPRLTSNPSRVDRLIVDELRELARVVTLLGKMERLRSSLLHASISTALDRHLESIHIVQSRRKDEIVNASNRQRQGVPRCQDDRDVFALASAIKEMCVATRKTRTALWCALQMTLPKTASTADVVKPLQDTVNCEDKVHESINSSNPMNQRGETNKH
B6: CCDC85C (protein, UniProt A6NKD9 2-419, looked up)
Coiled-coil domain-containing …: AKPAATAAAASEELSQVPDEELLRWSKEELARRLRRAEGEKVGLMLEHGGLMRDVNRRLQQHLLEIRGLKDVNQRLQDDNQELRELCCFLDDDRQKGRKLAREWQRFGRHAAGAVWHEVARSQQKLRELEARQEALLRENLELKELVLLLDEERAALAATGAASGGGGGGGGAGSRSSIDSQASLSGPLSGGAPGAGARDVGDGSSTSSAGSGGSPDHHHHVPPPLLPPGPHKAPDGKAGATRRSLDDLSAPPHHRSIPNGLHDPSSTYIRQLESKVRLLEGDKLLAQQAGSGEFRTLRKGFSPYHSESQLASLPPSYQDSLQNGPACPAPELPSPPSAGYSPAGQKPEAVVHAMKVLEVHENLDRQLQDSCEEDLSEKEKAIVREMCNVVWRKLGDAASSKPSIRQHLSGNQFKGPL

Legend:
[1] = test system: FLAG-USP20; test: IP-MS of FLAG-USP20 and variants vs empty vector; type: cell-based, human
Experimental: For transfection, 1x10^6 HEK293 cells were seeded in 10 cm dishes with DMEM, 10% FBS, 1% L-G (without antibiotic) medium, incubated at 37 °C, with 5 % CO2 for 24 h. Cells were transfected with a transfection mix containing 970 mL of Opti-MEM (Thermo Fisher Scientific), 20 μL of PEI stock (1 mg/mL) and 5 mg of the desired cDNA. For co-transfection, 2.5 μg of DNA of each plasmid was used. The mix was vortexed for 15 s and incubated at room temperature for 15–20 min. The transfection mix was added to the dish and gently mixed. Plates were incubated at 37 °C for 36–48 h before harvesting. For USP33 constructs, 5 μM Bortezomib (proteasome inhibitor) was added 4 hours before harvesting the cells.
FLAG fusion proteins were immunoprecipitated from HEK293 cells transfected with plasmids encoding the protein of interest using the anti-FLAG M2 affinity gel from Sigma-Aldrich. […] The cell lysate was clarified by centrifugation at 17,000 x g, at 4 °C for 12 min, and the supernatant was transferred to a clean, pre-chilled low-binding Eppendorf tube. […] The IP samples were centrifuged at 6500 x g at 4 °C for 30 s. The supernatant containing the unbound proteins was transferred to a clean tube. The resin was washed three times with 500 μL of TBS, centrifuged at 6500 x g at 4 °C for 30 s. The bound FLAG fusion protein was eluted with 100 μL of 150 ng/μL 3X FLAG peptide (Sigma) in TBS and incubated in the cold room for 1 h or overnight. The tube was centrifuged at 6500 x g at 4 °C for 30 s; the eluted proteins were transferred to a clean tube. The eluted proteins were prepared for analysis by western blot or Mass Spectrometry.
Immunoprecipitation (IP) was carried out as described above; four technical replicates of each IP condition were performed, and the empty vector was used as a negative control. The eluted protein was processed following the Strap-micro protocol (Protifi). The IP elution containing 1–100 μg protein was 1:1 mixed with 2X lysis buffer (10% SDS, 100 mM TEAB pH 8.5). […] Samples were vortexed, mixed with 165 μL of 100 mM TEAB in 90% methanol, and passed through an S-Trap micro column at 4000 g for 30 s to trap the proteins. The column was washed with 150 μL of 100 mM TEAB in 90% methanol (at 4,000 x g for 30 seconds) three times. The S-Trap column was centrifuged again and transferred to a clean 2 mL tube for digestion with 20 μL of digestion buffer (1 μg trypsin per 10 μg sample in 50 mM TEAB), at 37 °C overnight in a thermomixer without shaking. The digested peptides were eluted with 40 mL of 50 mM TEAB in water, 40 mL of 0.2 % formic acid in water, and 40 mL of 50 % acetonitrile in water, centrifuging at 4000 x g for 1 min each time. The three elutions were pooled in a low-binding tube, placed on dry ice until frozen, dried in a SpeedVac vacuum (Thermo Scientific), and proceeded with the LCMS analysis.
Protein groups identified with a single peptide or quantified in fewer than three replicates in at least 1 condition were filtered out. Protein group intensities were median normalized and missing values were imputed using a Gaussian distribution centered on the median with a downshift of 1.8 and width of 0.3 (relative to the standard deviation).

[2] = test system: FLAG-USP33; test: IP-MS of FLAG-USP33 and variants vs empty vector; type: cell-based, human
Experimental: For transfection, 1x10^6 HEK293 cells were seeded in 10 cm dishes with DMEM, 10% FBS, 1% L-G (without antibiotic) medium, incubated at 37 °C, with 5 % CO2 for 24 h. Cells were transfected with a transfection mix containing […] of Opti-MEM (Thermo Fisher Scientific), 20 μL of PEI stock (1 mg/mL) and […] of the desired cDNA. For co-transfection, 2.5 μg of DNA of each plasmid was used. The mix was vortexed for 15 s and incubated at room temperature for 15–20 min. The transfection mix was added to the dish and gently mixed. Plates were incubated at 37 °C for 36–48 h before harvesting. For USP33 constructs, 5 μM Bortezomib (proteasome inhibitor) was added 4 hours before harvesting the cells.
FLAG fusion proteins were immunoprecipitated from HEK293 cells transfected with plasmids encoding the protein of interest using the anti-FLAG M2 affinity gel from Sigma-Aldrich. Cell pellets were lysed with 100–200 μL/per dish lysis buffer (Pierce RIPA buffer, 1X protease inhibitor (Roche), 50 unit/μL of Benzonase Nuclease) rotating at 4 °C for 30–45 min. […] The cell lysate was clarified by centrifugation at 17,000 x g, at 4 °C for 12 min, and the supernatant was transferred to a clean, pre-chilled low-binding Eppendorf tube. […] The IP samples were centrifuged at 6500 x g at 4 °C for 30 s. The supernatant containing the unbound proteins was transferred to a clean tube. The resin was washed three times with 500 μL of TBS, centrifuged at 6500 x g at 4 °C for 30 s. The bound FLAG fusion protein was eluted with 100 μL of 150 ng/μL 3X FLAG peptide (Sigma) in TBS and incubated in the cold room for 1 h or overnight. The tube was centrifuged at 6500 x g at 4 °C for 30 s; the eluted proteins were transferred to a clean tube. The eluted proteins were prepared for analysis by western blot or Mass Spectrometry.
Immunoprecipitation (IP) was carried out as described above; four technical replicates of each IP condition were performed, and the empty vector was used as a negative control. The eluted protein was processed following the Strap-micro protocol (Protifi). The IP elution containing 1–100 μg protein was 1:1 mixed with 2X lysis buffer (10% SDS, 100 mM TEAB pH 8.5). […] Samples were vortexed, mixed with 165 μL of 100 mM TEAB in 90% methanol, and passed through an S-Trap micro column at 4000 g for 30 s to trap the proteins. The column was washed with 150 μL of 100 mM TEAB in 90% methanol (at 4,000 x g for 30 seconds) three times. The S-Trap column was centrifuged again and transferred to a clean 2 mL tube for digestion with 20 μL of digestion buffer (1 μg trypsin per 10 μg sample in 50 mM TEAB), at 37 °C overnight in a thermomixer without shaking. The digested peptides were eluted with […] of 50 mM TEAB in water, […] of 0.2 % formic acid in water, and […] of 50 % acetonitrile in water, centrifuging at 4000 x g for 1 min each time. The three elutions were pooled in a low-binding tube, placed on dry ice until frozen, dried in a SpeedVac vacuum (Thermo Scientific), and proceeded with the LCMS analysis.
Eluted peptides were resuspended in water supplemented with 0.015% dodecyl maltoside and 0.1% formic acid and were injected on a Vanquish Neo UHPLC System operating in trap and elute mode coupled to an Orbitrap Astral Mass Spectrometer (Thermo Fisher Scientific). […] Eluted peptides were analyzed using data-independent acquisition mode on the mass spectrometer.
Peptides were searched against the Uniprot Swissprot Human database (released on 02/01/2023) supplemented with the USP20 and USP33 mutants using DiaNN (v1.9.0)[62] operating in library-free mode. Data filtering and statistical analysis were carried out in Python (v3.9.0) using the packages pandas, numpy, sklearn, scipy, rpy2, Plotnine, and Plotly and R (v4.4.3) using the package limma.
Protein groups identified with a single peptide or quantified in fewer than three replicates in at least 1 condition were filtered out. […]

[3] = IP-MS, FLAG-USP20-ΔDUSP2 vs EV, comparison bh_2 Sample_Limma_ImpMedInt_USP20_DUSP2_domain/EV
[4] = IP-MS, FLAG-USP20 UBP mutant vs EV, comparison USP20_E55K_D59R/EV, Limma
[5] = IP-MS, FLAG-USP20 vs EV, comparison USP20_wt/EV, Limma
[6] = Table S7b USP20 MS_and_motif, bait USP20

Molecule	log2_FC [1, 3]	log2_FC [1, 4]	log2_FC [1, 5]	log2_FC [1, 6]	other results
B1	6.953				
B2	4.856	5.261			
B3					log2_FC ([2]; IP-MS, FLAG-USP33-ΔDUSP2 vs EV, comparison bh_2 Sample_Limma_ImpMedInt_USP33_DUSP2_domain/EV): 1.755; log2_FC ([2]; IP-MS, FLAG-USP33 vs EV, comparison USP33_wt/EV, Limma): 1.749; log2_FC ([2]; Table S7c USP33 MS_and_motif, bait USP33): 1.749
B4	4	4.331			
B5		4.883	5.071	5.071	log2_FC ([1]; IP-MS, FLAG-USP20-ΔUBP vs EV, comparison bh_2 Sample_Limma_ImpMedInt_USP20_UBP_domain/EV): 4.277
B6		3.963	4.015	4.015	
